Laboratory results published in PMC6692503, “Short- and Long-Term Effects of UVA on Arabidopsis Are Mediated by a Novel cGMP Phosphodiesterase” (Current Biology, 2019).

Substrate: [H][C@@]12COP(=O)(O)O[C@@]1([H])[C@@H](O)[C@H](n1cnc3c(=O)[nH]c(N)nc31)O2
Assay: phosphodiesterase assay kit (Biomol Green phosphate detection), Michaelis-Menten plot
Assay type: biochemical, Arabidopsis thaliana
Conditions: 25 °C, 60 min, GST fusion, Figure 3 legend prints 0.2587 μM, substrate of the plot not named in the legend

B1: CN-PDE1 (AtCN-PDE1, PDE1, AtPDE1) (Arabidopsis thaliana) (protein)
chain: MAAKTMRKAEELVEKAMKGNDASHDAWHVWRVRDLALSIAREEGLSSNSDSMEIVELAALLHDIGDYKYIRDPSEEKLVENFLDDEGIEETKKTKILTIINGMGFKDELAGVALCESLPEFGVVQDADRLDAIGAIGIARCFTFGGSRNRVLHDPEIKPRTELTKEQYIKREEQTTINHFHEKLLKLKKLMKTEAGKRRAEKRHKFMEEYLKEFYEEWDGST
- Km: 0.259 µM
